This assay has as its system NCI-H460-CLDN18.2 xenograft tumor. The experiment in a line: NCI-H460-CLDN18.2 and hPBMC co-inoculation xenograft tumor model. The conditions noted are these: 10 mg/kg each antibody, i.p. twice a week for 5 weeks. The format is in vivo, NOD-SCID mice. An excerpt: NCI-H460-CLDN18.2 was purchased from Kyinno (Cat #, KC-1450), which was stablely transfected with human CLDN18.2 expression. The tumor cells were routinely sub-cultured twice weekly by trypsin-EDTA treatment (Hyclone). The cells growing in an exponential growth phase were harvested and counted for tumor inoculation. Female SPF grade NOD-SCID mice were inoculated with 3×10^6 NCI-H460-CLDN18.2 cells and 1.5×10^6 human PBMC along with 50% matrigel. Animal were selected and randomized to 4 groups (n=10), approximately 4 hours post inoculation. Animals were then treated with 10 mg/kg Isotype control, 10 mg/kg anti-CLDN18.2 antibody 18B10, 10 mg/kg anti-PD-L1 antibody AM4B6, 10 mg/kg anti-CLDN18.2 antibody 18B10 and 10 mg/kg anti-PD-L1 antibody AM4B6 twice a week for 5 weeks by i.p. injection. Tumor size was measured twice or triple times a week in two dimensions using a caliper (INSIZE) and the volume was expressed in mm^3 using the formula: V=0.5 a×b^2 where a and b are the long and short diameters of the tumor, respectively. Results were analyzed using Prism GraphPad and expressed as mean±S.E.M. Comparisons between two groups were made by T-test, and the difference is considered significant if p is *<0.05 and **<0.01.

Here are results for one molecule from patent US20250326834A1, “COMBINATION THERAPY OF CLAUDIN 18.2 ANTAGONIST AND PD-1/PD-L1 AXIS INHIBITOR” (SUZHOU TRANSCENTA THERAPEUTICS CO., LTD., priority 2021, published 2025).

Broadly, the TGI is how far tumour growth fell short of that in controls. A high value points to much slowing of growth.

B1: AM4B6: anti-PD-L1 antibody; VH SEQ ID NO: 17, VL SEQ ID NO: 18 (antibody, V domains shown)
VH: QVQLVQSGAEVKKPGASVKVSCKASGYVFTDYYMNWVRQAPGQSLEWMGDINPNNAETLYNHKFKGRVTVTVDKSISTAYMELSRLRSDDTAVYYCVKWGDGPFAYWGQGTLVTVSS
VL: DIQMTQSPSSLSASVGDRVTITCKASQNVGAAVAWYQQKPGKAPKLLIYSVSDRYTGVPSRFSGSGSGTDFTLTISSLQPEDIATYYCQQYSNYPTFGQGTKLEIK
For the molecule B1, the “effect on tumor growth compared with isotype control” value is listed as “no significant impact on tumor growth”. Further, the TGI (Day 29) came out at 17.6%. Moreover, the Tumor size (Day 29, mean ± S.E.M.) worked out at 557.06 ± 67.47 mm^3.
